Columns and labels:
[1] = biological target: human TIM-3 on cells (human) (UniProt Q8TDQ0); assay: cell-based or functional assay
[2] = biological target: hTIM3-Fc WT (human); assay: ELISA, construct coated on plate
[3] = biological target: hTIM3-Fc murine C′C″ loop (human, C′C″ loop replaced by mouse TIM-3); assay: ELISA, construct coated on plate
[4] = biological target: hTIM3-Fc murine CC′ loop (human, CC′ loop replaced by mouse TIM-3); assay: ELISA, construct coated on plate
[5] = biological target: hTIM3-Fc murine BC loop (human, BC loop replaced by mouse TIM-3); assay: ELISA, construct coated on plate
[6] = biological target: hTIM3-Fc murine DE loop (human, DE loop replaced by mouse TIM-3); assay: ELISA, construct coated on plate
[7] = biological target: hTIM3-Fc murine FG loop (human, FG loop replaced by mouse TIM-3); assay: ELISA, construct coated on plate

IL-2 secretion by SEB-activated PBMCs (% of the activity of anti-PD-L1) [1]: 50 | Absorbance at 450 nm [2]: 1.34 A450 | Absorbance at 450 nm [3]: 1.48 A450 | Absorbance at 450 nm [4]: 0.094 A450 | Absorbance at 450 nm [5]: 1.23 A450 | Absorbance at 450 nm [6]: 0.978 A450 | Absorbance at 450 nm [7]: 1.48 A450
Substance: anti-TIM-3 mAb F38-2E2 (BioLegend, 345010) (antibody)

Reference: US20160200815A1
